T1: Human ST2 (human, UniProt Q01638 19-328, limits assumed)
T1 construct: also called human ST2 protein; Interleukin 1 receptor-like 1
T1 sequence (looked up): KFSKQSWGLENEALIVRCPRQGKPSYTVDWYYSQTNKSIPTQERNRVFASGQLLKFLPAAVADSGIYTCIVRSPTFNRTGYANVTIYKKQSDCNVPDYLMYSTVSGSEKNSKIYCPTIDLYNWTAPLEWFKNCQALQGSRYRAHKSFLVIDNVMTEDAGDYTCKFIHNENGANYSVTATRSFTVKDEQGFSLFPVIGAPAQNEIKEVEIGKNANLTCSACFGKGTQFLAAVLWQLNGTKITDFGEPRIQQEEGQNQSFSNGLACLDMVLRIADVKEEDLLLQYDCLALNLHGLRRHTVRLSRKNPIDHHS

T2: Mouse ST2 (mouse, UniProt P14719 27-332, limits assumed)
T2 construct: also called mouse ST2 protein
T2 sequence (looked up): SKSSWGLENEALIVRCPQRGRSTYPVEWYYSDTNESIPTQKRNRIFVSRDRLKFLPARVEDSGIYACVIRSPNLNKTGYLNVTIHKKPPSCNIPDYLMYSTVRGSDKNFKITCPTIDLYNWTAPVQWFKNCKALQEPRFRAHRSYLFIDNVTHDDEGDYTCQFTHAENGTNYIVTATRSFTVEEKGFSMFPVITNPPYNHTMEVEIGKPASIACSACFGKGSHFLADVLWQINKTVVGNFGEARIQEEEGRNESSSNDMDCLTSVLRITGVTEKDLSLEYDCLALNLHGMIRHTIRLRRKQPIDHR

B1: Human ST2 IgG1 Antibody 101 (antibody, V domains shown)
VH: QVQLVQSGAEVKKPGASVKVSCKASGYTFSTYDINWVRQAPGQGLEWVGIISPSGGWTTYAQKFQGRVTMTRDTSTSTVYMELSSLRSEDTAVYYCARVNYDILTGQGRGYYFDYWGQGTLVTVSS
VL: DIQMTQSPSSLSASVGDRVTITCQATQDIADYLNWYQQKPGKAPKLLIYKASSLESGVPSRFSGSGSGTDFTLTISSLQPEDFATYYCQQSYSTPTFGPGTKVDIKR
notes: IgG1, kappa; also called ST2 Antibody 101
B2: Human ST2 IgG1 Antibody 102 (antibody, V domains shown)
VH: QVQLVQSGAEVKKPGSSVKVSCKASGYIFTRYYVNWVRQAPGQGLEWMGGIIPMFGTSNYAQKFQGRVTITADESTSTAYMELSSLRSEDTAVYYCARSSGYDSFKIDYWGQGTLVTVSS
VL: not shown
notes: IgG1, kappa
B3: Human ST2 IgG1 Antibody 54 (antibody, V domains shown)
VH: EVQLLESGGGLVQPGGSLRLSCAASGFTVSSNYMSWVRQAPGKGLEWVSAISGSGGSTYYADSVKGRFTISRDNSKNTLYLQMNSLRAEDTAVYYCARGRFGSRDVWGKGTTVTVSS
VL: not shown
notes: IgG1, kappa; also called ST2 Antibody 54
B4: Human ST2 IgG1 Antibody 99 (antibody, V domains shown)
VH: EVQLLESGGGLVQPGGSLRLSCAASGFTFSDYYMNWVRQAPGKGLEWVSTISGFGESTFYADSVKGRFTISRDNSKNTLYLQMNSLRAEDTAVYYCARLGAARAFDIWGQGTTVTVSS
VL: DIQMTQSPSSLSASVGDRVTITCRASQSIGSWMAWYQQKPGKAPKLLIYAASTLQSGVPSRFSGSGSGTDFTLTISSLQPEDFATYYCQQSYTTPITFGPGTKVDIKR
notes: IgG1, kappa; also called ST2 Antibody 99
B5: Human ST2 IgG1 Antibody 57 (antibody, V domains shown)
VH: QVQLVQSGAEVKKPGASVKVSCKASGYTFTGYYMHWVRQAPGQGLEWMGVINPSGGSTSYAQKFQGRVTMTRDTSTSTVYMELSSLRSEDTAVYYCARGDYYYGSGSDYYYYYGMDVWGQGTLVTVSS
VL: DIQMTQSPSSLSASVGDRVTITCRASQGVTSWLAWYQQKPGKAPKLLIYAASTLQSGVPSRFSGSGSGTDFTLTISSLQPEDFATYYCQQANSFPLTFGGGTKVEIKR
notes: IgG1, kappa; also called ST2 Antibody 57
B6: Human ST2 IgG1 Antibody 63 (antibody, V domains shown)
VH: QVQLVQSGAEVKKPGSSVKVSCKASGGTFSSDAINWVRQAPGQGLEWMGGIVPAFGTANYAQKFQGRVTITADESTSTAYMELSSLRSEDTAVYYCARSSSSWPYYYYYMDVWGKGTTVTVSS
VL: DIVMTQSPLSLPVTPGEPASISCRSSQSLLLNNGNNFIDWYLQKPGQSPQLLIYAASILQGGVPDRFSGSGSGTDFTLKISRVEAEDVGVYYCMQALQTPPTFGQGTKVEIKR
notes: IgG1, kappa; also called ST2 Antibody 63
B7: Human ST2 IgG1 Antibody 78 (antibody, V domains shown)
VH: EVQLLESGGGLVQPGGSLRLSCAASDFNFKNAWMSWVRQAPGKGLEWVSAISGNGAGTYYADSVKGRFTISRDNSKNTLYLQMNSLRAEDTAVYYCARVGETGAFDIWGQGTTVTVSS
VL: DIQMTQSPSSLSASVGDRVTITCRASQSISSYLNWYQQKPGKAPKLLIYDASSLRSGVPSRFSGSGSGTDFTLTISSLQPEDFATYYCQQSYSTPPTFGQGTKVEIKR
notes: IgG1, kappa; also called ST2 Antibody 78
B8: Human ST2 IgG1 Antibody 49 (antibody, V domains shown)
VH: QVQLVQSGAEVKKPGASVKVSCKASGGTLSSYAISWVRQAPGQGLEWMGGISPYNGKANYAEKLQGRVTMTRDTSTSTVYMELSSLRSEDTAVYYCAIRSIAAREGVYYYYMDVWGKGTTVTVSS
VL: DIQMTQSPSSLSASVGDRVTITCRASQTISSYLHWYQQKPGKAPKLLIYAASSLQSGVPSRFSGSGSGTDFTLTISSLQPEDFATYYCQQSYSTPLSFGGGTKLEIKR
notes: IgG1, kappa; also called ST2 Antibody 49
B9: Human ST2 IgG1 Antibody 45 (antibody, V domains shown)
VH: QVQLVQSGAEVKKPGSSVKVSCKASGGTFSSYAISWVRQAPGQGLEWMGGIVPIFETANYAQKFQGRVTITADESTSTAYMELSSLRSEDTAVYYCARDTPNFDYWGQGTLVTVSS
VL: not shown
notes: IgG1, kappa; also called ST2 Antibody 45
B10: Human ST2 IgG1 Antibody 52 (antibody, V domains shown)
VH: QVQLVQSGAEVKKPGSSVKVSCKASGGTFSNYAISWVRQAPGQGLEWMGWISAYNGNTNYAQKFQGRVTITADESTSTAYMELSSLRSEDTAVYYCARLSTVTTRPYYYYGMDVWGQGTTVTVSS
VL: DIVMTQSPLSLPVTPGEPASISCRSSQSLLHSNGYNYLDWYLQKPGQSPQLLIYAASSLQGGVPDRFSGSGSGTDFTLKISRVEAEDVGVYYCMQGTHWPTFGQGTKVEIKR
notes: IgG1, kappa; also called ST2 Antibody 52
B11: Human ST2 IgG1 Antibody 76 (antibody, V domains shown)
VH: QVQLVQSGAEVKKPGSSVKVSCKASGYTFTDYYMHWVRQAPGQGLEWMGVIIPVLGAAKYAQKFQGRVTITADESTSTAYMELSSLRSEDTAVYYCAKGWGAFDIWGQGTMVTVSS
VL: EIVMTQSPATLSVSPGERATLSCRASQSVSSYLAWYQQKPGQAPRLLIYGASTRASGIPARFSGSGSGTEFTLTISSLQSEDFAVYYCQQYYSYPWTFGQGTKVEIKR
notes: IgG1, kappa; also called ST2 Antibody 76
B12: Human ST2 IgG1 Antibody 86 (antibody, V domains shown)
VH: QVQLVQSGAEVKKPGSSVKVSCKASGGTFSNYAISWVRQAPGQGLEWMGGIIPIFGTANYAQKFQGRVTITADESTSTAYMELSSLRSEDTAVYYCAKDLGGWFNLFDPWGQGTLVTVSS
VL: B11 VL with S28G, S56T, Y92R, Y94F, W96L, Q100G
notes: IgG1, kappa; also called ST2 Antibody 86
B13: Human ST2 IgG1 Antibody 41 (antibody, V domains shown)
VH: QVQLVQSGAEVKKPGSSVKVSCKASGYTFTDYQMHWVRQAPGQGLEWVGVINPGGGSTTYAQTFQGRVTITADESTSTAYMELSSLRSEDTAVYYCARGGVEYSSSWDYYYYYGMDVWGQGTTVTVSS
VL: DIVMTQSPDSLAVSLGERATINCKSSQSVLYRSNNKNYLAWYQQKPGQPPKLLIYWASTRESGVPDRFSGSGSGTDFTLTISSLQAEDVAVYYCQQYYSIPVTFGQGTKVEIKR
notes: IgG1, kappa; also called ST2 Antibody 41
B14: Human ST2 IgG1 Antibody 70 (antibody, V domains shown)
VH: QVQLVQSGAEVKKPGSSVKVSCKASGYAFTDYFIHWVRQAPGQGLEWMGGIIPIFGTANYAQKFQGRVTITADKSTSTAYMELSSLRSEDTAVYYCARVAYGAFDIWGQGTMVTVSS
VL: EIVMTQSPATLSVSPGERATLSCRASQSVSSSYLAWYQQKPGQAPRLLIYGASTRATGIPARFSGSGSGTEFTLTISSLQSEDFAVYYCQQYNNWPLTFGGGTKVEIKR
notes: IgG1, kappa; also called ST2 Antibody 70
B15: Human ST2 IgG1 Antibody 44 (antibody, V domains shown)
VH: EVQLLESGGGLVKPGGSLRLSCAASGFTFSSYWMSWVRQAPGKGLEWVSAISGTAINTYYADSVKGRFTISRDDSKNTLYLQMNSLKTEDTAVYYCARVRRDSSGGGAFDIWGQGTMVTVSS
VL: DIQMTQSPSSLSASVGDRVTITCRASQGISNNLNWYQQKPGKAPKLLIYAASSLQTGVPSRFSGSGSGTDFTLTISSLQPEDFATYYCQQSYSTPPTFGQGTKVEIKR
notes: IgG1, kappa; also called ST2 Antibody 44
B16: Human ST2 IgG1 Antibody 83 (antibody, V domains shown)
VH: EVQLLESGGGLVKPGGSLRLSCAASGFTFSSYWMSWVRQAPGKGLEWVSAIGTAGDTYYPGSVKGRFTISRDDSKNTLYLQMNSLKTEDTAVYYCAILRRDKVWPFDYWGQGTLVTVSS
VL: B15 VL with G28S, N31S, N32H, N34H, T56S, T94S, P96V, Q100G
notes: IgG1, kappa; also called ST2 Antibody 83
B17: Human ST2 IgG1 Antibody 89 (antibody, V domains shown)
VH: B15 VH
VL: B15 VL
notes: IgG1, kappa; also called ST2 Antibody 89
B18: Human ST2 IgG1 Antibody 98 (antibody, V domains shown)
VH: B15 VH
VL: B15 VL
notes: IgG1, kappa; also called ST2 Antibody 98

Residue numbers refer to the chain shown, from its start.

The text below walks through data of patent publication US20210403579A1 (DELINIA, published 2021).

The target of the first assay is T1, Human ST2. Description: SPR (Carterra), antibody immobilized, ST2 analyte, 1:1. The procedure: (§1) Binding of the reformatted human ST2 antibodies to the human and mouse ST2 proteins was evaluated by surface plasmon resonance (SPR), using a high throughput antibody screening and characterization platform from Carterra (Salt Lake City, Utah).
A word on the Kd: it is the concentration at which binding is half-saturated. A low value points to a tighter complex. What is called koff is the rate constant with which the complex falls apart. A higher koff goes with a short-lived complex. What is called kon is the rate constant with which the complex forms. In the case of B1, binding was put at a Kd of 590 nM, the dissociation rate constant (koff) turned out to be 0.11 s⁻¹ and the on-rate constant (kon) was found to be 190000 M⁻¹ s⁻¹.
In the same order, the values of B2 are 270 nM, 0.065 s⁻¹ and 240000 M⁻¹ s⁻¹.

Another assay addresses T2, Mouse ST2. Described as above. How it is done: as §1
B3 yielded a dissociation constant Kd of 2700 nM, a koff of 0.13 s⁻¹ and a kon of 50000 M⁻¹ s⁻¹.
B4 showed a dissociation constant Kd of 419 nM, a koff of 0.098 s⁻¹ and an association rate constant (kon) of 230000 M⁻¹ s⁻¹.
Consider B5, for which the Kd stood at 3100 nM, the off-rate constant (koff) was found to be 0.16 s⁻¹ and the kon stood at 51000 M⁻¹ s⁻¹.
In turn, B6 registered a dissociation constant Kd of 2400 nM, a dissociation rate constant (koff) of 0.15 s⁻¹ and an on-rate constant (kon) of 62000 M⁻¹ s⁻¹.
The like results for B7 were, in that order, 744 nM, 0.13 s⁻¹ and 180000 M⁻¹ s⁻¹.
The like results for B8 were, in that order, 436 nM, 0.12 s⁻¹ and 270000 M⁻¹ s⁻¹.
With B9, the equilibrium dissociation constant (Kd) was found to be 1400 nM, the off-rate (koff) stood at 0.13 s⁻¹ and the association rate constant (kon) came out at 95000 M⁻¹ s⁻¹.
In the same order, the values of B10 are 2700 nM, 0.16 s⁻¹ and 59000 M⁻¹ s⁻¹.
In the same order, the values of B11 are 778 nM, 0.14 s⁻¹ and 180000 M⁻¹ s⁻¹.
Take B12: the Kd came out at 507 nM, the koff is 0.098 s⁻¹ and the on-rate (kon) is 190000 M⁻¹ s⁻¹.
The like results for B13 were, in that order, 845 nM, 0.11 s⁻¹ and 140000 M⁻¹ s⁻¹.
The like results for B14 were, in that order, 3900 nM, 0.13 s⁻¹ and 33000 M⁻¹ s⁻¹.
The like results for B15 were, in that order, 999 nM, 0.11 s⁻¹ and 110000 M⁻¹ s⁻¹.
In turn, B16 displayed a dissociation constant (Kd) of 438 nM, a koff of 0.063 s⁻¹ and an on-rate (kon) of 140000 M⁻¹ s⁻¹.
B17 showed an equilibrium dissociation constant (Kd) of 989 nM, a koff of 0.1 s⁻¹ and a kon of 100000 M⁻¹ s⁻¹.
In the same order, the values of B18 are 975 nM, 0.12 s⁻¹ and 120000 M⁻¹ s⁻¹.
